Key:
Assay in all cases: flow cytometry on peripheral blood lymphocytes
[1] = molecular target: T1, rhesus monkey CD4 on lymphocytes (rhesus monkey, UniProt P16003 26-458)
T1 construct: whole, on cells; also called rhesus CD4 cells
Procedure: (§1) It is further desirable for some purposes that the animal be a non-human primate that expresses CD4 comprising a cross-reactive epitope with human CD4 such that it is recognized by the monoclonal antibody. […] Peripheral blood lymphocytes were isolated from whole blood of chimpanzee, rhesus, and cynomolgus monkeys. […] The stained cells were then analyzed by flow cytometry to determine if each of the human monoclonal antibodies bound to endogenous CD4 on the surface of lymphocytes from each of these three non-human primates.

[2] = molecular target: T2, cynomolgus monkey CD4 on lymphocytes (cynomolgus monkey, UniProt P79185 26-458)
T2 construct: whole, on cells; also called cynomolgus CD4 cells
T2 sequence (P79185 26-458): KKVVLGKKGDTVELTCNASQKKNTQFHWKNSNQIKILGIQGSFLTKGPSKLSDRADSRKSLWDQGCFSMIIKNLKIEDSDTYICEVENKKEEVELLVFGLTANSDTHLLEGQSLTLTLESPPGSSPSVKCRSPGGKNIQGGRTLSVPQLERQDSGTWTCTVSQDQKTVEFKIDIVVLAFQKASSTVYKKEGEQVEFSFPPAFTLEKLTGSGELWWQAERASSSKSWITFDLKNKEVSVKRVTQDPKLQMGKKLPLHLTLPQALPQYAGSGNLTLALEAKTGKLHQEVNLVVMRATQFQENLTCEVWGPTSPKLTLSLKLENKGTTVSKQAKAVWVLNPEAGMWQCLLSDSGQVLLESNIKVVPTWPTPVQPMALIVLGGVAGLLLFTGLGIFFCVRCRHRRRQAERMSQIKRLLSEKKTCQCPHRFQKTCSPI
Procedure: as §1

[3] = molecular target: T3, chimpanzee CD4 on lymphocytes (chimpanzee, UniProt P16004 26-458)
T3 construct: whole, on cells; also called chimpanzee CD4 cells
T3 sequence (P16004 26-458): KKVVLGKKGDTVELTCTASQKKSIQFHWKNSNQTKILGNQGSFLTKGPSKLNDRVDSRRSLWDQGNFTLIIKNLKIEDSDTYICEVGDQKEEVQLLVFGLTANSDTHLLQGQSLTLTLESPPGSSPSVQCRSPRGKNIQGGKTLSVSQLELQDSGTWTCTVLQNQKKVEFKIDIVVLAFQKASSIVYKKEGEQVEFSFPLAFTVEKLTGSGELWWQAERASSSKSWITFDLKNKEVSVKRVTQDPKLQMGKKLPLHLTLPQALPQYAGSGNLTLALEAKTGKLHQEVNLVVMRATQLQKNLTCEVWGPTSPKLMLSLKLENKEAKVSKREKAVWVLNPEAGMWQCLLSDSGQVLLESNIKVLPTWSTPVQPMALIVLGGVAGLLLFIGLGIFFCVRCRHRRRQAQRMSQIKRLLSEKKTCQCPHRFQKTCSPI
Procedure: as §1

T1 sequence (P16003 26-458): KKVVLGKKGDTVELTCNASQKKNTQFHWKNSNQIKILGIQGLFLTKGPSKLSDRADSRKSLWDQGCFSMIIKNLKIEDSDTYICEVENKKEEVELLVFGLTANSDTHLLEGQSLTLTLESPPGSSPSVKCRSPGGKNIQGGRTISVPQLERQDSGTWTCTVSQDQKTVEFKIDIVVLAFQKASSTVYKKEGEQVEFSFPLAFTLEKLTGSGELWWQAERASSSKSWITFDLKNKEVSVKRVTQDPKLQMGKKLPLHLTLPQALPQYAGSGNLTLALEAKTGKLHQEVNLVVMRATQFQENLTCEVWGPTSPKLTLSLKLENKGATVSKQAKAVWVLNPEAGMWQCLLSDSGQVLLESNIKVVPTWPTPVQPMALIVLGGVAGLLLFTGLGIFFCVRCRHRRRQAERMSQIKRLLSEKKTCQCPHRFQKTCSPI

binding result [1]: binds | binding result [2]: binds | binding result [3]: binds
B1: 4D1 (antibody, V domains shown)
VH: EVQLVQSGAEVKKPGESLKISCKGSGYSFTGYWIGWVRQMPGKGLEWMGIIYPGDSDTTYSPSFQGQVTISADKSISTAYLQWSSLKASDTAMYYCARDQLGLFDYWGQGTLVTVSS
VL: DIQMTQSPSSLSASVGDRVTITCRASQGISSWLAWYQQKPEKAPKSLIYSASSLQSGVPSRFSGSGSGTDFTLTISSLQPEDFATYYCQQYDSYPYTFGQGTKLEIK
notes: human IgG1 kappa from hybridoma; h.c; VH5-51, DHQ52, JH4; VkL15, Jk2; also called 4D1.4

Source: patent publication US7501552 (GENPHARM INTERNATIONAL, dated 2009)
